Source: PMC10226619, “The SAGA HAT module is tethered by its SWIRM domain and modulates activity of the SAGA DUB module” (Biochimica et biophysica acta. Gene regulatory mechanisms, 2023)

T1: Spt7 with a C-terminal TAP tag (S. cerevisiae, UniProt P35177 1-1332)
T1 construct: Spt7, SAGA core subunit, S. cerevisiae; expressed at endogenous level; SAGA was captured on IgG Sepharose by the TAP tag and released from the beads by TEV cleavage of the tag; also called Spt7-TAP; not shown: TAP, C-terminal, kept
T1 sequence (looked up): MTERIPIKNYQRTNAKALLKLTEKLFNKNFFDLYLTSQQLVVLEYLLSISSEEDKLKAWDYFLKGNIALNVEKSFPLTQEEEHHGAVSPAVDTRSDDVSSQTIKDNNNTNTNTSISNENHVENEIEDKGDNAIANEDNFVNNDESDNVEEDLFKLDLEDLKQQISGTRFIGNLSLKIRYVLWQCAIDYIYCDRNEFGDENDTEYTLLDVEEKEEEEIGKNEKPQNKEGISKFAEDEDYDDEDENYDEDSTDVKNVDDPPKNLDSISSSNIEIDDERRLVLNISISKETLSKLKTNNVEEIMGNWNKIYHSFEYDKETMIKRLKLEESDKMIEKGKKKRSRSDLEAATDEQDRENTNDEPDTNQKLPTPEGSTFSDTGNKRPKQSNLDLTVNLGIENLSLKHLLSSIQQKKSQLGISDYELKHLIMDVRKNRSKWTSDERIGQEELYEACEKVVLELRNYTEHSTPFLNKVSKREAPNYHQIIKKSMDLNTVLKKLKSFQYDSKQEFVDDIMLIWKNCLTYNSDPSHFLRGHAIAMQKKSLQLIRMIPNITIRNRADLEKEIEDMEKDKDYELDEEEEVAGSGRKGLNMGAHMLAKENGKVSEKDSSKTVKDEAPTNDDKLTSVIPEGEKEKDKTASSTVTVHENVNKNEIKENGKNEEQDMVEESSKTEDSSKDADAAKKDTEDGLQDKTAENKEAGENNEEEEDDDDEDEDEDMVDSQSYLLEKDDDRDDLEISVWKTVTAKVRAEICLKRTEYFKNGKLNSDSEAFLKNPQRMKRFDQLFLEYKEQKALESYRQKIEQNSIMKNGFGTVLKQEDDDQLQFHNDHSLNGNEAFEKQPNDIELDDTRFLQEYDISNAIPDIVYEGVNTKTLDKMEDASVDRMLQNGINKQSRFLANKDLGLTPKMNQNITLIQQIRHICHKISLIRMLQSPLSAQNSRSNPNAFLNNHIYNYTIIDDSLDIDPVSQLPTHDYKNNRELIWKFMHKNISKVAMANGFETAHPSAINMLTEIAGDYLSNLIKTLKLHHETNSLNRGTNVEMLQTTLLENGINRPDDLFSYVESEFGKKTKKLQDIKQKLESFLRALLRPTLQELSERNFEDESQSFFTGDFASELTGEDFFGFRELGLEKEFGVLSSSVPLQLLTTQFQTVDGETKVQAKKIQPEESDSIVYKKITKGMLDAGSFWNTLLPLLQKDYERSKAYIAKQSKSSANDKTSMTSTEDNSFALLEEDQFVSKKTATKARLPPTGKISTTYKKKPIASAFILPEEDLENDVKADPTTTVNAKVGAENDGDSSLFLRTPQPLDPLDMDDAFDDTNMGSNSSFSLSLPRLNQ

B1: Sgf29 (endogenous) (natural protein, S. cerevisiae (endogenous in yeast), UniProt P25554 1-259, looked up)
chain: MDGYWDVVVSSLQDIYNANEVIPFDDELQTKKLNFLNMSKDQLQLHLNTFQEHMENVNRVHRILDNVRSNLSLMLNQSREEKSEENTEDAEEGEGTRMALSQGKKAVGKVGRSYWTSEYNPNAPILVGSEVAYKPRRGSADGEWIQCEVLKVVADGTRFEVRDPEPDELGNSGKVYKCNRKELLLIPPGFPTKNYPPGTKVLARYPETTTFYPAIVIGTKRDGTCRLRFDGEEEVDKETEVTRRLVLPSPTALANLARK
notes: Sgf29, SAGA HAT module subunit, S. cerevisiae; source: endogenous, S. cerevisiae lysate / whole cell extract
B2: Ada3 (endogenous) (natural protein, S. cerevisiae (endogenous in yeast), UniProt P32494 1-702, looked up)
chain: MPRHGRRGKLPKGEKLPKKEGGDNTPSKLLSSMLKTLDLTFERDIGMLNGKSVRSIPNKKTLLELQSQLDSLNEILGTIARGDQETIEALRKIRDSKNEKQANDEKQETSNADGQHESSTATEETNIIDKGVQSPPKPPPSNEISGTIENDVESIKQAADNMAKEEINEDKDLQVHRDQPREKRPFDSETENRATENENTQRPDNKKQKIDVDKMENDPTVKNPKSEFVVSQTLPRAAAALGLFNEEGLESTGEDFLKKKYNVASYPTNDLKDLLPGELPDMDFSHPKPTNQIQFNTFLAFVENFFKDLSDDNLKFLKMKYIIPDSLQFDKTYDPEVNPFIIPKLGPLYTDVWFKDENDKNSAYKKPSPYSNDASTILPKKSANELDDNALESGSISCGPLLSRLLSAVLKDDNDKSELQSSKIIRDGGLPRTGGEDDIQSFRNNNNDTVDMTLSQENGPSVQTPDNDIDEEASFQAKLAENKGSNGGTTSTLPQQIGWITNGINLDYPTFEERLKRELKYVGIYMNLPKDENNPNSDDPDWVTGREDDEISAELRELQGTLKQVTKKNQKRKAQLIPLVERQLAWQEYSSILEDLDKQIDQAYVKRIRVPKKRKKHHTAASNNVNTGTTSQIAQQKAANSSLKSLLDKRQRWINKIGPLFDKPEIMKRIPNESVFKDMDQEEDEDEADVFAQNTNKDVELN
notes: Ada3, SAGA HAT module subunit, S. cerevisiae; source: endogenous, S. cerevisiae lysate / whole cell extract
B3: Ada2 ΔSWIRM (Δ residues 349–434, chromosomal deletion) (natural protein, S. cerevisiae, UniProt Q02336 1-434, looked up)
chain: MSNKFHCDVCSADCTNRVRVSCAICPEYDLCVPCFSQGSYTGKHRPYHDYRIIETNSYPILCPDWGADEELQLIKGAQTLGLGNWQDIADHIGSRGKEEVKEHYLKYYLESKYYPIPDITQNIHVPQDEFLEQRRHRIESFRERPLEPPRKPMASVPSCHEVQGFMPGRLEFETEFENEAEGPVKDMVFEPDDQPLDIELKFAILDIYNSRLTTRAEKKRLLFENHLMDYRKLQAIDKKRSKEAKELYNRIKPFARVMTAQDFEEFSKDILEELHCRARIQQLQEWRSNGLTTLEAGLKYERDKQARISSFEKFGASTAASLSEGNSRYRSNSAHRSNAEYSQNYSEN
notes: Ada2, S. cerevisiae, without the SWIRM domain (residues 349–434 substituted with KanMX in the gene); source: S. cerevisiae strain YCW20, SWIRM domain deleted by homologous recombination, in lysate
B4: Gcn5 (endogenous) (enzyme, S. cerevisiae (endogenous in yeast), UniProt Q03330 1-439, looked up)
chain: MVTKHQIEEDHLDGATTDPEVKRVKLENNVEEIQPEQAETNKQEGTDKENKGKFEKETERIGGSEVVTDVEKGIVKFEFDGVEYTFKERPSVVEENEGKIEFRVVNNDNTKENMMVLTGLKNIFQKQLPKMPKEYIARLVYDRSHLSMAVIRKPLTVVGGITYRPFDKREFAEIVFCAISSTEQVRGYGAHLMNHLKDYVRNTSNIKYFLTYADNYAIGYFKKQGFTKEITLDKSIWMGYIKDYEGGTLMQCSMLPRIRYLDAGKILLLQEAALRRKIRTISKSHIVRPGLEQFKDLNNIKPIDPMTIPGLKEAGWTPEMDALAQRPKRGPHDAAIQNILTELQNHAAAWPFLQPVNKEEVPDYYDFIKEPMDLSTMEIKLESNKYQKMEDFIYDARLVFNNCRMYNGENTSYYKYANRLEKFFNNKVKEIPEYSHLID
notes: Gcn5, histone acetyltransferase subunit of the SAGA HAT module, S. cerevisiae; source: endogenous, S. cerevisiae lysate / whole cell extract

Biological target: T1, Spt7 with a C-terminal TAP tag
Test: affinity purification with mass spectrometry; SAGA purified by Spt7-TAP from yeast with the Ada2 SWIRM domain deleted (YCW20): IgG Sepharose, TEV cleavage, HiTrap Q; LC-MS/MS, total spectrum counts normalized to Spt7
Conditions: partners not purified

Row | fold depletion against wild type SAGA [fold] | Binder
1 | ~7 | B1
2 | ~7 | B2
3 | ~7 | B3
4 | ~7 | B4
